Series [1] in a line: folding stability dG unfold from chymotrypsin proteolysis; higher = more stable. The essentials:
(§1)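 Bayesian fitting of sequencing counts gave K50 for each design. Unfolding free energy followed by setting this against a sequence-predicted unfolded-state K50 and a shared folded-state K50, either per protease or with trypsin and chymotrypsin combined. The designs, under 80 residues and lacking cysteine, were digested in a PA-tagged cDNA display format at 11 threefold-diluted protease concentrations and without protease, and only those with AlphaFold2 dimer inter-PAE above 15 were kept.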

Series [2] in a line: folding stability dG unfold (combined trypsin and chymotrypsin); higher = more stable. The essentials: as §1
The nature of series [3]: folding stability dG unfold from trypsin proteolysis; higher = more stable. The essentials: as §1

± gives the half width of the 95% confidence interval.

In the case of “SAGGPTLKVKIYLPEEGKVIEFTFEAKKDEAEKIAKELEKLFPGYKLEGVKIFETPDSIELLAVASPESAGG [r13_196_TrMRF]”, the figures for the “folding stability dG unfold” value in series [1], in series [2] and in series [3] were 3.65 ± 0.075 kcal/mol, 3.52 ± 0.069 kcal/mol and 3.26 ± 0.11 kcal/mol, respectively.
As to “SAGGPTVVLRVRDADGNLVTVTFDEETKRITVTVVRDGKTRTLTVDMTVDEAIARLRDLFPVEVELVPSAGG [r13_141_TrROS_Hall]”, the “folding stability dG unfold” value in series [1] is 3.05 ± 0.014 kcal/mol; in series [2] it was 2.83 ± 0.041 kcal/mol; in series [3] it was 2.42 ± 0.051 kcal/mol.
For “SAGGPVFLGFEEALEFIEKAFENGEDVVVVARLPDGGLVVLEASGPDLDLRVVAVIPLPPPEEDPEKYSAGG [r13_839_TrMRF]” the same measures were 0.268 ± 0.14 kcal/mol, 1.03 ± 0.091 kcal/mol and 1.5 ± 0.033 kcal/mol.
As for “SAGGPVIEVEKEYIPETGLVKVKVRDPSSDRELEIIAPSDLVDKIEKALENAPGTNSEAAVREALRDSAGGS [r8_484_TrMRF]”, the “folding stability dG unfold” value was 0.921 ± 0.032 kcal/mol in series [1], 0.402 ± 0.15 kcal/mol in series [2] and -0.935 ± 0.42 kcal/mol in series [3].
For “SAGGPVIEVESLEELKKALELLKEGKEVVIRVRVRRTETLPDGRKRVEEREVVYRATVEDGKLTIEPLSAGG [r13_835_TrROS_Hall]”, the “folding stability dG unfold” value in series [1] stood at 3.91 ± 0.13 kcal/mol; in series [2], 3.56 ± 0.12 kcal/mol; in series [3], 2.93 ± 0.092 kcal/mol.
“SAGGPVLVLVEVEAGFDGRPRLRRLVLPVELRPDGTVDLDAVRRAVEELLPPDWRILRIEVVPPDAPFSAGG [r13_504_TrMRF]”: the “folding stability dG unfold” value was determined as 1.46 ± 0.045 kcal/mol in series [1], 1.58 ± 0.047 kcal/mol in series [2] and 1.577 ± 0.011 kcal/mol in series [3].
Take “SAGGPVVEKIRELLKELGYEVEVTDVKEDYVEIKVKLPDKEITLPDGSKIERLENGELRIWIPKEDLSAGGS [r8_297_TrROS_Hall]”: the “folding stability dG unfold” value was found to be 3.4 ± 0.088 kcal/mol in series [1], 3.25 ± 0.083 kcal/mol in series [2] and 2.98 ± 0.061 kcal/mol in series [3].
Regarding “SAGGRGEGTMNDPEGGRVYKSEYDPGDGQAEIEPKPVPPVPPIDAEELAEELEQKNGLPNDDVEDMLGSAGG [r13_824_TrROS]”, the “folding stability dG unfold” value in series [1] was -0.208 ± 0.44 kcal/mol; in series [2], -0.309 ± 0.27 kcal/mol; in series [3] it was -0.336 ± 0.084 kcal/mol.
In the same order, the values of “SAGGRIKDIEPIPPNDPPGQKLTIKFPDGGPIEIPMEKEPDENGPYYYKFKLQVNNGEIEVMFRIPNSAGGS [r8_360_TrROS]” are 5.47 ± 0.16 kcal/mol, 5.18 ± 0.32 kcal/mol and 3.73 ± 0.25 kcal/mol.
“SAGGRKAKVTVTLPDGTVVELELEFKTEEEFEKAVKEKLEELFGKSIEEVPFVEKKVTVYDPEKGSKSESAG [r5_482_JUSTAS]”: the figures for the “folding stability dG unfold” value in series [1], in series [2] and in series [3] were 2.18 ± 0.12 kcal/mol, 2.04 ± 0.31 kcal/mol and 1.13 ± 0.13 kcal/mol, respectively.
For “SAGGRLVEAIREANKQGKPMSREEIKDKIKDAIREQNEENGGKIPEIEITDIHWNPDNGYVPIEIKVSAGGS [r16_365_TrROS]” the same measures were -0.62 ± 0.27 kcal/mol, -0.561 ± 0.25 kcal/mol and -0.152 ± 0.2 kcal/mol.
In the same order, the values of “SAGGRRKIEFEVWIPMDKDGEITPNEIIEEAREIAEALPNFDNVEIEEISIQHHPDGWTRYNITIEVPSAGG [r13_462_TrROS]” are 2.42 ± 0.058 kcal/mol, 2.31 ± 0.31 kcal/mol and 2.16 ± 0.16 kcal/mol.
“SAGGRVRLEERVLPDGRRVLVVHLPDRPLEVVIPLEGLALPPDQPVLVRGEGGVRELPIGDLLPEALFSAGG [r13_97_TrMRF]”: the “folding stability dG unfold” value in series [1] was found to be 0.658 ± 0.053 kcal/mol; in series [2], 0.88 ± 0.036 kcal/mol; in series [3] it was 1.06 ± 0.011 kcal/mol.
Turning to “SAGGRYWKLTTPPDRPLRLVIEPVPLEDTPEEYGSRLYIPNTGKVYYFPLKYAQEILDLPWIERLEPVSAGG [r19_302_TrMRF]”, the “folding stability dG unfold” value amounted to 0.343 ± 0.21 kcal/mol in series [1], 0.664 ± 0.11 kcal/mol in series [2] and 0.903 ± 0.096 kcal/mol in series [3].
In the same order, the values of “SAGGSAAEPVVLVFKTPESEALITVPPAFVQRVTVDPGGTVRRITVDLPDGTRTFLITDDSIFVDDSAGGSA [r15_598_TrMRF]” are 0.581 ± 0.12 kcal/mol, 0.709 ± 0.068 kcal/mol and 0.753 ± 0.048 kcal/mol.
For “SAGGSAAGAERVTYNYMIPNDGKWFMIRITIYRFEVKRDPEDNKYKLDLPPGDQLFINTEIMWFPNSAGGSA [r15_1040_TrROS]” the same measures were 4.14 ± 0.076 kcal/mol, 3.73 ± 0.24 kcal/mol and 2.72 ± 0.12 kcal/mol.
For the sequence “SAGGSAAIPLEFELPNGERVTVYYDPETGLFTVEVEVRFGNEKGEPPEVRFRFEVDSLVDLLDFLASAGGSA [r15_31_TrMRF]”, the “folding stability dG unfold” value was determined as 3.88 ± 0.039 kcal/mol in series [1], 3.49 ± 0.093 kcal/mol in series [2] and 2.51 ± 0.13 kcal/mol in series [3].
For “SAGGSAAITFPSDKTATVLSEEYDPVKKTTTVKMKVGNKEVTATLSPDGTVTIKLPDGKEETYPVGSAGGSA [r15_111_JUSTAS]” the same measures were 1.41 ± 0.016 kcal/mol, 1.35 ± 0.099 kcal/mol and 1.18 ± 0.057 kcal/mol.
For “SAGGSAALELVEEVSEFYDPNTGKKTTLVVARKDGKPILILIPPSGATVYDASNGNKLFEIPPELLSAGGSA [r15_85_JUSTAS]” the same measures were 1.16 ± 0.074 kcal/mol, 0.951 ± 0.065 kcal/mol and 0.61 ± 0.03 kcal/mol.
Turning to “SAGGSAALVLSREEFDGEVLLTLRDPETGEELLARLTYVPEENLVRLETTFPDGSTTTSVLPASALSAGGSA [r15_1055_JUSTAS]”, the “folding stability dG unfold” value amounted to 1.59 ± 0.059 kcal/mol in series [1], 1.75 ± 0.033 kcal/mol in series [2] and 1.794 ± 0.017 kcal/mol in series [3].
For “SAGGSADEELLEKAKEALKKAEPPKIVVLNLPLPSGKELKVTLDPTTNKFTAEFPDGGSKTFDFPESAGGSA [r15_977_JUSTAS]” the same measures were 0.86 ± 0.096 kcal/mol, 0.858 ± 0.12 kcal/mol and 1.05 ± 0.11 kcal/mol.
For “SAGGSADIKIIKLPEKNELVILVPGEFDENVPLVLHDEGGPSWEVVDARVERVGDDLIITAKVRKSSAGGSA [r15_838_TrMRF]” the same measures were 0.701 ± 0.049 kcal/mol, 0.691 ± 0.099 kcal/mol and 0.594 ± 0.037 kcal/mol.
For “SAGGSADKITVRVMPSPDGMYRVKIWHPGKKREYWMNPDDPDKMLEEFADEINPDRPIKVEVEPYKSAGGSA [r15_925_TrROS]” the same measures were 0.913 ± 0.16 kcal/mol, 0.467 ± 0.18 kcal/mol and -0.919 ± 0.87 kcal/mol.
Take “SAGGSADPDDKEQKIKVEIETYRLEDNGMEVTRIELEGHGMPIYIARFPDGRMFIFTANGELEQIPSAGGSA [r15_617_TrROS]”: the “folding stability dG unfold” value in series [1] was found to be 2.71 ± 0.059 kcal/mol; in series [2] it was 2.41 ± 0.16 kcal/mol; in series [3], 1.97 ± 0.14 kcal/mol.
On to “SAGGSADPDSPYVIRFNKPYTTFSPDGTPIELTEDVLKRFKSEEEAKKAKEELEKKGAKVEPVEGSSAGGSA [r15_117_JUSTAS]”, for which the “folding stability dG unfold” value in series [1] is 0.242 ± 0.31 kcal/mol; in series [2], -0.159 ± 0.23 kcal/mol; in series [3], -0.767 ± 0.41 kcal/mol.
In the same order, the values of “SAGGSADPEKVKLIEVEVEVHVEYDPEKGTYTVKAEFPDLTLSFEVPADSIHPDEKFKAPVLILVLSAGGSA [r15_190_TrMRF]” are 3.7 ± 0.22 kcal/mol, 3.29 ± 0.24 kcal/mol and 2.29 ± 0.091 kcal/mol.

Source of the values: the supplement of paper PMC12764529.
